Test results taken from patent publication US20240075161A1 (AUGUSTA UNIVERSITY RESEARCH INSTITUTE, published 2024).
Where no end group is shown, it is not given here. The star is where a group is joined. Biotin = O=C1N[C@H]2[C@H](CS[C@H]2CCCCC(=O)*)N1

Target: T1, CD206 on CD206-positive M2 macrophages (mouse) (mouse, UniProt Q61830 20-1456)
T1 construct: whole, on cells; No purified CD206 was used; also called CD206 receptor; CD206+ RAW264.7 cells
T1 sequence (looked up): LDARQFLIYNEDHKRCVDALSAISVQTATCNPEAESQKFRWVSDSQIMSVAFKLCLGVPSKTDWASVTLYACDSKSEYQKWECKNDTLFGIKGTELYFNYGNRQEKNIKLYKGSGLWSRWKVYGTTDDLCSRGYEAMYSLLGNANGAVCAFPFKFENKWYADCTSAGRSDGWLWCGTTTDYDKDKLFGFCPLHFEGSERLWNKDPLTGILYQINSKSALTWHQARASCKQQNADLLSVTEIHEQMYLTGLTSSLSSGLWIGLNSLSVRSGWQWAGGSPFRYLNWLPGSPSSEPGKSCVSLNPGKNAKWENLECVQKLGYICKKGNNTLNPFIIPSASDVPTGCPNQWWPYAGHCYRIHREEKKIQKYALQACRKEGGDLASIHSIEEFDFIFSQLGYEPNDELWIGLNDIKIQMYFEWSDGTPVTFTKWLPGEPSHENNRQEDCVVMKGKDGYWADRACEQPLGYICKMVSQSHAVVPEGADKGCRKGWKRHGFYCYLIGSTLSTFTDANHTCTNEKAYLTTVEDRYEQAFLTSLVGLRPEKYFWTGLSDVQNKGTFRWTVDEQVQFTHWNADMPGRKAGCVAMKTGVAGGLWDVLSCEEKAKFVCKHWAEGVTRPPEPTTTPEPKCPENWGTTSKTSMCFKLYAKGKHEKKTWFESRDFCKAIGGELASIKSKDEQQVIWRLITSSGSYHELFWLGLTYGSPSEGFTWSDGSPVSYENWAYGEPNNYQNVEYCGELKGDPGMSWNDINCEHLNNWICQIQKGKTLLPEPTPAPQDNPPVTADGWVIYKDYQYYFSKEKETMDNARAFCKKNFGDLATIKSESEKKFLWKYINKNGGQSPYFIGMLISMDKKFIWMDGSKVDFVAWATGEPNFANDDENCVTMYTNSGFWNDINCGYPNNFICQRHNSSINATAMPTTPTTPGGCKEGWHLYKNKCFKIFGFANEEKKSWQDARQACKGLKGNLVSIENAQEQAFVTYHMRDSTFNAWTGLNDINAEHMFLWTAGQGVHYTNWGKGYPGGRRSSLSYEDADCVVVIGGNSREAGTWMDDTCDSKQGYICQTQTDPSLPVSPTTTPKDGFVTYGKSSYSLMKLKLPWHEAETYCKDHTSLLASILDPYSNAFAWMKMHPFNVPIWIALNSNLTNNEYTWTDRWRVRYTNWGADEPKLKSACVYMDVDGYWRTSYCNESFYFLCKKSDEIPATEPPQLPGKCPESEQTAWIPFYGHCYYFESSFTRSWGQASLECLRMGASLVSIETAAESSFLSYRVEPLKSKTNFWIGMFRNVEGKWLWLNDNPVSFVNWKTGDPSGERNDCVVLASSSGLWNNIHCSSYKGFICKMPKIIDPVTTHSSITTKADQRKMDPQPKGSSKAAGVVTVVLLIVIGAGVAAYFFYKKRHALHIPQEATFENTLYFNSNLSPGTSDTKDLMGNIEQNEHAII
Experiment: immunofluorescence of tumor, spleen and lung sections of 4T1 tumor-bearing mice after i.v. injection

binding result: binds
B1: Biotinylated precision peptide (Biotin-CSPGAKVRC), rhodamine-labeled (peptide)
peptide: Biotin-CSPGAKVRC
modifications: cysteine pairing not given here; also: complex with rhodamine-tagged streptavidin
notes: Synthetic peptide (GeneScript); injected i.v. as a complex with rhodamine-streptavidin; also called Rhodamine red-labeled targeting peptide; rhodamine-labeled precision peptide
